Measurements published in patent US20240025956A1 (MIYAGI PREFECTURAL HOSPITAL ORGANIZATION, published 2024).

How the values were obtained:
[1] = biological target: T1, mouse IL-2 receptor α (mouse, UniProt P01590 22-268); assay: NanoLuc on-cell binding, mouse IL-2Rα-expressing 293T, ratio 293Ta/293T, 10 nM
T1 construct: whole, on cells; also called mouse IL-2Rα; CD25
T1 sequence (looked up): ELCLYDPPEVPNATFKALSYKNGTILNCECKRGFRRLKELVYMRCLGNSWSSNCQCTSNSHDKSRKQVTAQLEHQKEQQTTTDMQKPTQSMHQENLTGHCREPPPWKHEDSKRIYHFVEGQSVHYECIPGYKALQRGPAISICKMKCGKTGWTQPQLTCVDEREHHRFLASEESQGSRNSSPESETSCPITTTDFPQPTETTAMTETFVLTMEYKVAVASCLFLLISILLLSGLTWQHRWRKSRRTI
Description: (§1) Next, IL-2 receptor α binding capability on cells (on-cell receptor binding) was measured. Specifically, 293T cells were obtained from the RIKEN Cell Bank (RCB2202). Human and mouse IL-2 receptor α-expressing 293T (293Ta) was established as cells stably expressing the IL-2 receptor α in 293T through use of lentiviral vectors (pSIN-EF-RfA2-1-human IL-2Ra and pSIN-EF-RfA2-1-mouse IL-2Ra) constructed respectively with human and mouse IL-2 receptor α-chain genes (NCBI Reference Sequence: NM_000417.2 and NM_008367.3) as cassettes. 293T and human or mouse 293Ta were allowed to adhere to a 24 wel cell culture plate (Techno Plastic Products AG, #92424). After that, a suspension (10 nM) of NanoLuc (trademark) luciferase sequence (Promega Corporation, USA)-fused mature stable mutant human MK-4-IL-2 (MK-4, pcDNA4-MK-4-NLuc, corresponding to a comparative example), mature stable mutant human MK-6-IL-2 (MK-6, pcDNA4-MK-6-NLuc), mature stable mutant human IL-2 (MK-14, pcDNA4-MK-14-NLuc, IL-2 positive control), or mature stable mutant human MK-15-IL-2 (MK-15, pcDNA4-MK-15-NLuc) was added, and the mixture was subjected to a reaction by being left at rest at 4° C. for 1 hour. The cells were washed, followed by quantification. The binding capability of mutant IL-2 for the α-subunit is shown as a numerical value for a ratio between amounts bound to 293Ta and 293T (293Ta/293T). […]

[2] = biological target: T2, human IL-2 receptor α (human, UniProt P01589 22-272); assay: NanoLuc on-cell binding, human IL-2Rα-expressing 293T, ratio 293Ta/293T
T2 construct: whole, on cells; also called IL-2Rα; CD25
T2 sequence (looked up): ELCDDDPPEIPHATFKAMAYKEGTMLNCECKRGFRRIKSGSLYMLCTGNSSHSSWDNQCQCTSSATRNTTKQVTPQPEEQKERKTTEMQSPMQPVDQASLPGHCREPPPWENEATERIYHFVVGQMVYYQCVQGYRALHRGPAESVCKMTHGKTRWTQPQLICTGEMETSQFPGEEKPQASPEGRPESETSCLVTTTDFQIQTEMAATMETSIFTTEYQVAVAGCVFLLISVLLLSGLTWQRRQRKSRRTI
Description: as §1

[3] = biological target: T1, mouse IL-2 receptor α; assay: NanoLuc on-cell binding, mouse IL-2Rα-expressing 293T, ratio 293Ta/293T
Description: as §1

Binder | binding result [1] | binding result [2] | binding result [3]
NanoLuc luciferase sequence-fused mature stable mutant human MK-4-IL-2 (ligand, not shown: large carriers, also called pcDNA4-MK-4-NLuc) APASSSTKKTQLQLEHLLLDLQMILNGINNYKNPALTAMLTFKFYMPKKATELKHLQCLEEELKPLEEVLNLAQSKNFHLRPRDLISNINVIVLELKGSETTFMCEYADETATIVEFLNRWITFAQSIISTLT | binds | – | –
NanoLuc luciferase sequence-fused mature stable mutant human MK-6-IL-2 (ligand, not shown: large carriers, also called pcDNA4-MK-6-NLuc) APASSSTKKTQLQLEHLLLDLQMILNGINNYKNPALTAMLTFAFAMPKKATELKHLQCLEEELKPLEEVLNLAQSKNFHLRPRDLISNINVIVLELKGSETTFMCEYADETATIVEFLNRWITFAQSIISTLT | – | no binding (tested: 10 nM) | –
NanoLuc luciferase sequence-fused mature stable mutant human MK-15-IL-2 (ligand, not shown: large carriers, also called pcDNA4-MK-15-NLuc) APASSSTKKTQLQLEHLLLDLQMILNGINNYKNPALTAMLTAKFAMPKKATELKHLQCLEEELKPLEEVLNLAQSKNFHLRPRDLISNINVIVLELKGSETTFMCEYADETATIVEFLNRWITFAQSIISTLT | – | no binding (tested: 10 nM) | no binding (tested: 10 nM)
